The series concerns the molecule itself. Briefly: dimer-sized band on SDS-PAGE Western blot; TMEM18 purified from insect cells, bound to DNA-cellulose, washed and eluted with 0.5 M, 1 M and 2 M salt; anti-Flag Western blot; dimer form approx. 34 kDa against monomer form approx. 17 kDa.

This is an account of results in publication PMC3182218, “Obesity Risk Gene TMEM18 Encodes a Sequence-Specific DNA-Binding Protein” (PLoS ONE, 2011).

B1: TMEM18 produced in insect cells (N-terminal Flag-tag followed by eight histidines) (natural protein)
chain: not shown
notes: TMEM18, 140 amino acids; cloned into pK509.3 vector; Flag-tag first, then eight histidine repeats, then TMEM18; detected by anti-Flag Western blot; also called histidine and Flag-tagged TMEM18; source: Sf9 or Tn5 insect cells (baculovirus), purified (nuclear extract in dodecyl maltoside, Ni-sepharose); not shown: Flag, N-terminal, kept
Turning to B1, the binding result is on record as “binds”.
